T1: Hrp1 (CF IB) (Saccharomyces cerevisiae, UniProt Q99383 1-534)
T1 sequence: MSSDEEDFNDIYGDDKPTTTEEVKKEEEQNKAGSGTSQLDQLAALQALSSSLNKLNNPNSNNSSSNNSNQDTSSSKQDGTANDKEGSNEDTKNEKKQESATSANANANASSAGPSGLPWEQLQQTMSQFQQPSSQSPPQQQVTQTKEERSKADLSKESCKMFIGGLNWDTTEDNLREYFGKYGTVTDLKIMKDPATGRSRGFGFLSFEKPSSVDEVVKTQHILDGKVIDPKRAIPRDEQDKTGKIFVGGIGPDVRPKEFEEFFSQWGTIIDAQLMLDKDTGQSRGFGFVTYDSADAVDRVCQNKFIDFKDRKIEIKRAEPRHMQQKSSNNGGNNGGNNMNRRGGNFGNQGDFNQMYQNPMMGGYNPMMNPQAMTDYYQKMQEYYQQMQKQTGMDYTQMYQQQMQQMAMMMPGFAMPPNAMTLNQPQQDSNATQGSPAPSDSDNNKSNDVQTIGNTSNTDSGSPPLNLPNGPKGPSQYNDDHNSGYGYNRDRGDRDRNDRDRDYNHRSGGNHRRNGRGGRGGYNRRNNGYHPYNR

T2: Cft2 (Saccharomyces cerevisiae, UniProt Q12102 1-859)
T2 sequence: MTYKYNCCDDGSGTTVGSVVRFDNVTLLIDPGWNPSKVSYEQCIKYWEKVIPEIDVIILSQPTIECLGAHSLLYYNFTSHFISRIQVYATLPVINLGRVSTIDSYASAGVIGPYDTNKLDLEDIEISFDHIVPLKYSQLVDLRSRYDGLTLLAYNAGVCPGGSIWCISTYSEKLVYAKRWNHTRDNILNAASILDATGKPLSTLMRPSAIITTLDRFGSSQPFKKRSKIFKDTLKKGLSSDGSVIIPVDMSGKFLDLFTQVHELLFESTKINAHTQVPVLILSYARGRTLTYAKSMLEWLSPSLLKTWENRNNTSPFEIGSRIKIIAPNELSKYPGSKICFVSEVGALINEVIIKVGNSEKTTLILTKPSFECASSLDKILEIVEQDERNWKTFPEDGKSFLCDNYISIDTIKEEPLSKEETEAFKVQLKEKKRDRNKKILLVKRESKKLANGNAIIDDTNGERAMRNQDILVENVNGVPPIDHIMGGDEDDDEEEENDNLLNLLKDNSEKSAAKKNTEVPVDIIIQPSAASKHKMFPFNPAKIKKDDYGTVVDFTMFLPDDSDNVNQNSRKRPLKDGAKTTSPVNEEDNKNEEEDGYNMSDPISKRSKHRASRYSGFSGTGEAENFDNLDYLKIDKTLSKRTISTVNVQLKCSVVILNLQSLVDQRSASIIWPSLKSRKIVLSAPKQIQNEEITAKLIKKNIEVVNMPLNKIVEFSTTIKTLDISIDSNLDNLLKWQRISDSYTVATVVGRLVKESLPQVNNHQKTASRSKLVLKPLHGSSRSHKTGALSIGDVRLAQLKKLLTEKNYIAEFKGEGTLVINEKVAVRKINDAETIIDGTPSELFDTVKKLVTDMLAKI

B1: Rna14-Rna15 complex (6H-Rna14-Rna15) (complex, S. cerevisiae)
chain 1: MSSSTTPDLLYPSADKVAEPSDNIHGDELRLRERIKDNPTNILSYFQLIQYLETQESYAKVREVYEQFHNTFPFYSPAWTLQLKGELARDEFETVEKILAQCLSGKLENNDLSLWSTYLDYIRRKNNLITGGQEARAVIVKAFQLVMQKCAIFEPKSSSFWNEYLNFLEQWKPFNKWEEQQRIDMLREFYKKMLCVPFDNLEKMWNRYTQWEQEINSLTARKFIGELSAEYMKARSLYQEWLNVTNGLKRASPINLRTANKKNIPQPGTSDSNIQQLQIWLNWIKWERENKLMLSEDMLSQRISYVYKQGIQYMIFSAEMWYDYSMYISENSDRQNILYTALLANPDSPSLTFKLSECYELDNDSESVSNCFDKCTQTLLSQYKKIASDVNSGEDNNTEYEQELLYKQREKLTFVFCVYMNTMKRISGLSAARTVFGKCRKLKRILTHDVYVENAYLEFQNQNDYKTAFKVLELGLKYFQNDGVYINKYLDFLIFLNKDSQIKTLFETSVEKVQDLTQLKEIYKKMISYESKFGNLNNVYSLEKRFFERFPQENLIEVFTSRYQIQNSNLIKKLELTYMYNEEEDSYFSSGNGDGHHGSYNMSSSDRKRLMEETGNNGNFSNKKFKRDSELPTEVLDLLSVIPKRQYFNTNLLDAQKLVNFLNDQVEIPTVESTKSG
chain 2: MNRQSGVNAGVQNNPPSRVVYLGSIPYDQTEEQILDLCSNVGPVINLKMMFDPQTGRSKGYAFIEFRDLESSASAVRNLNGYQLGSRFLKCGYSSNSDISGVSQQQQQQYNNINGNNNNNGNNNNNSNGPDFQNSGNANFLSQKFPELPSGIDVNINMTTPAMMISSELAKKPKEVQLKFLQKFQEWTRAHPEDAVSLLELCPQLSFVTAELLLTNGICKVDDLIPLASRPQEEASATNNNSVNEVVDPAVLNKQKELLKQVLQLNDSQISILPDDERMAIWDLKQKALRGEFGAF
notes: Rna14, S. cerevisiae; Rna15, S. cerevisiae; The pull-down methods call the prey 'untagged' though the construct carries a His6 tag; also called Rna14–15; source: E. coli BL21 Star (DE3), purified as described previously (Gordon et al., 2011)

molecular target: T3, CPFpol: Cft1-Pfs2_(-3C-SII)-Yth1_(-3C-8H)-Fip1-Pap1 (S. cerevisiae, UniProt Q06632 1-1357; P42841 1-465; Q06102 1-208; P45976 1-327; P29468 1-568); assay: pull-down; Strep-tagged bait proteins and complexes (100 μL at 1.5 μM) immobilised on Streptactin beads; prey CF IA, CF IB, Rna14-Rna15 or Pcf11-Clp1 (20 μL at 4.0 μM) bound 60 min at 4°C; 10 mM HEPES pH 7.9, 150 mM NaCl, 0.5 mM Mg(OAc)2, 0.05% Tween-20; SDS-PAGE, InstantBlue; settings: both partners purified
T3 construct: Cft1, S. cerevisiae; Pfs2, S. cerevisiae; Yth1, S. cerevisiae; Fip1, S. cerevisiae; Pap1, S. cerevisiae; also called polymerase module; source: Sf9, purified as described previously (Casañal et al., 2017); not shown: StrepII, C-terminal, kept; copies: + + + +

binding result | Binder
binds | B1

molecular target: T4, CPFpol (no Pap1): Cft1-Pfs2_(-3C-SII)-Yth1_(-3C-8H)-Fip1 (S. cerevisiae, UniProt Q06632 1-1357; P42841 1-465; Q06102 1-208; P45976 1-327); assay: as above; settings: both partners purified
T4 construct: Cft1, S. cerevisiae; Pfs2, S. cerevisiae; Yth1, S. cerevisiae; Fip1, S. cerevisiae; also called polymerase module without Pap1; source: Sf9, purified as described previously (Casañal et al., 2017); not shown: StrepII, C-terminal, kept; copies: + + +
T4 sequence (Q06632 whole entry, chain 1 of 4): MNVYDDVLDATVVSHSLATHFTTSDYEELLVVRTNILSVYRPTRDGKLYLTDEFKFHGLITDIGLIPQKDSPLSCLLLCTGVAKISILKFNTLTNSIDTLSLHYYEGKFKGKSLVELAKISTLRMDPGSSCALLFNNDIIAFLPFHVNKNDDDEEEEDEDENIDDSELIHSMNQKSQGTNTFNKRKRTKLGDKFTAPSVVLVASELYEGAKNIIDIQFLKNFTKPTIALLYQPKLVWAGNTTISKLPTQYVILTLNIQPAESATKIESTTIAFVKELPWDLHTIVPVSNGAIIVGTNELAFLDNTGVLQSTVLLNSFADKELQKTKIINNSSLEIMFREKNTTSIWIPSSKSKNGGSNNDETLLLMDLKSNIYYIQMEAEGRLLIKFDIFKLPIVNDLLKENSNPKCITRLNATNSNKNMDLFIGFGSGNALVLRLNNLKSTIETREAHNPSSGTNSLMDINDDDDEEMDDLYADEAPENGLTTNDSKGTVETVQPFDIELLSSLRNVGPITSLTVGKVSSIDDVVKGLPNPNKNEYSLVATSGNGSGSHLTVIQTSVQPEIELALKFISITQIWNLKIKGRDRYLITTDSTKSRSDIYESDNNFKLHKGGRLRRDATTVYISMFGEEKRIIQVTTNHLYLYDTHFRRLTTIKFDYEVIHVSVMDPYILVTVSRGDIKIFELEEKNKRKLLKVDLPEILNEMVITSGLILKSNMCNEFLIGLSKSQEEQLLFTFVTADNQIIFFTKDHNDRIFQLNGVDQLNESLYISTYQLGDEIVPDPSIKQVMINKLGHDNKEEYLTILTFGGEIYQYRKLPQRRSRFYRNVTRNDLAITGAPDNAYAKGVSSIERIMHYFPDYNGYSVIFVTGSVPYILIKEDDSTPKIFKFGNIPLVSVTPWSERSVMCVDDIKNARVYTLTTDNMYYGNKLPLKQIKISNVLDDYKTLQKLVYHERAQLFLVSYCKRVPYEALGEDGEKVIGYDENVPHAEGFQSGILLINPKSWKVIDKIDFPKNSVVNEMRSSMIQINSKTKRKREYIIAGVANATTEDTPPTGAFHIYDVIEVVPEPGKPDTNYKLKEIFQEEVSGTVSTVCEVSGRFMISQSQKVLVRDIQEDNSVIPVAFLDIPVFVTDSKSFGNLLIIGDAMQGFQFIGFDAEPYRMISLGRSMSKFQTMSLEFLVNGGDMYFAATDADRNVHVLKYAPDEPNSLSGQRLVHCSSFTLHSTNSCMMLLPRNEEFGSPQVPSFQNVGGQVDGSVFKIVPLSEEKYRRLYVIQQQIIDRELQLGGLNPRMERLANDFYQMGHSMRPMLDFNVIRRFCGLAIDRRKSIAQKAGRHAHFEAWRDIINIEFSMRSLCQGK
T4 sequence (P42841 whole entry, chain 2 of 4): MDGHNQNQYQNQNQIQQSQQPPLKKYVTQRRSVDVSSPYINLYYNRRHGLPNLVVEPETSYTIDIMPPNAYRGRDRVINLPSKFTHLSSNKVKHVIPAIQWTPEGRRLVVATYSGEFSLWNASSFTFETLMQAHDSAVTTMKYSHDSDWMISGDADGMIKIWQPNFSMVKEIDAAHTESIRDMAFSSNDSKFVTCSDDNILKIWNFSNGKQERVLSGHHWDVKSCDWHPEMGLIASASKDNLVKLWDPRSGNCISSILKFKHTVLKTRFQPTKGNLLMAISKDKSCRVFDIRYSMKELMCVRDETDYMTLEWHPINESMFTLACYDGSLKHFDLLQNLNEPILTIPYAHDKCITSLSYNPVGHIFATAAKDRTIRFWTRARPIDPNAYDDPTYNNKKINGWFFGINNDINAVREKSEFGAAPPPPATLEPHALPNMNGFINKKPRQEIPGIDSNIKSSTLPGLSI
T4 sequence (Q06102 whole entry, chain 3 of 4): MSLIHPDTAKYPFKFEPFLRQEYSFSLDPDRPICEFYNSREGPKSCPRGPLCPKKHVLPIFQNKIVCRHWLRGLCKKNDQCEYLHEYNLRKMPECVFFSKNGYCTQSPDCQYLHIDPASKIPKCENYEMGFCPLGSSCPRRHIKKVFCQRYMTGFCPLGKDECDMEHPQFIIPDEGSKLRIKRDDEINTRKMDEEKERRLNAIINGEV
T4 sequence (P45976 whole entry, chain 4 of 4): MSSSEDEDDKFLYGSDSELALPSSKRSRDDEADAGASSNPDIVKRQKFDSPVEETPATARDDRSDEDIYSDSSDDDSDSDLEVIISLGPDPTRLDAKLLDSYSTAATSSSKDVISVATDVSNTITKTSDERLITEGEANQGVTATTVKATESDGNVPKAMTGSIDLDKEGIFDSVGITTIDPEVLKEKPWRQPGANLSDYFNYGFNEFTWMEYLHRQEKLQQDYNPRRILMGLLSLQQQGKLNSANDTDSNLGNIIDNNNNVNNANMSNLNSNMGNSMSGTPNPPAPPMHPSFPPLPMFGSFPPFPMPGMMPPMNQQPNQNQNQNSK

binding result | Binder
binds | B1

molecular target: T5, CPF_(core): Cft1-Pfs2_(-3C-SII)-Yth1_(-3C-8H)-Fip1-Pap1-Cft2-Ysh1-Mpe1 (S. cerevisiae, UniProt Q06632 1-1357; P42841 1-465; Q06102 1-208; P45976 1-327; P29468 1-568; Q12102 …); assay: as above; settings: both partners purified
T5 construct: Cft1, S. cerevisiae; Pfs2, S. cerevisiae; Yth1, S. cerevisiae; Fip1, S. cerevisiae; Pap1, S. cerevisiae; Cft2, S. cerevisiae; Ysh1, S. cerevisiae; Mpe1, S. cerevisiae; also called eight-subunit core cleavage and polyadenylation factor complex; source: Sf9, co-expressed from one multi-gene baculovirus construct, purified (StrepTactin, Mono Q, Superose 6); not shown: StrepII, C-terminal, kept; …

binding result | Binder
binds | B1

molecular target: T1, Hrp1 (CF IB); assay: EMSA; EMSA: 50 nM RNA, 0.25-4.0 uM protein, protein diluted in 10 mM HEPES pH 7.9, 150 mM NaCl, 0.5 mM Mg(OAc)2, plus 1x loading dye (orange G, glycerol, EDTA); 30 min on ice; native 6% acrylamide/TBE PAGE; settings: protein: recombinant; tags: 6H (6H-Hrp1); label: 5'-FAM

Binder | binding result
CGUUAUUUAUAUUUCAAAUUUUUCU (ssRNA) [CYC1f EMSA probe] | binds
CCCCCCCCCCCCCCC (ssRNA) [C15] | no binding
AAGAACGUUAUUUAUAUUUCAAAUUUUUCUUUUUU (ssRNA) [CYC1d EMSA probe] | binds
GGGGGGGGGGGGGGG (ssRNA) [G15] | binds
UUUUUUUUUUUUUUU (ssRNA) [U15] | binds

molecular target: T2, Cft2; assay: as above; settings: protein: recombinant; tags: SII (Cft2-SII) when alone; untagged in CPFpol+Cft2 and CPFcore; label: 5'-FAM

Binder | binding result
CGUUAUUUAUAUUUCAAAUUUUUCU (ssRNA) [CYC1f EMSA probe] | binds
CCCCCCCCCCCCCCC (ssRNA) [C15] | no binding
AAGAACGUUAUUUAUAUUUCAAAUUUUUCUUUUUU (ssRNA) [CYC1d EMSA probe] | binds
GGGGGGGGGGGGGGG (ssRNA) [G15] | binds
UUUUUUUUUUUUUUU (ssRNA) [U15] | no binding
AAAAAAAAAAAAAAA (ssRNA) [A15] | no binding

molecular target: Pap1 (Saccharomyces cerevisiae, UniProt P29468 1-568); assay: as above; settings: protein: recombinant; tags: SII (Pap1-SII) when alone; untagged in CPFpol and CPFcore; label: 5'-FAM
Sequence (P29468 whole entry): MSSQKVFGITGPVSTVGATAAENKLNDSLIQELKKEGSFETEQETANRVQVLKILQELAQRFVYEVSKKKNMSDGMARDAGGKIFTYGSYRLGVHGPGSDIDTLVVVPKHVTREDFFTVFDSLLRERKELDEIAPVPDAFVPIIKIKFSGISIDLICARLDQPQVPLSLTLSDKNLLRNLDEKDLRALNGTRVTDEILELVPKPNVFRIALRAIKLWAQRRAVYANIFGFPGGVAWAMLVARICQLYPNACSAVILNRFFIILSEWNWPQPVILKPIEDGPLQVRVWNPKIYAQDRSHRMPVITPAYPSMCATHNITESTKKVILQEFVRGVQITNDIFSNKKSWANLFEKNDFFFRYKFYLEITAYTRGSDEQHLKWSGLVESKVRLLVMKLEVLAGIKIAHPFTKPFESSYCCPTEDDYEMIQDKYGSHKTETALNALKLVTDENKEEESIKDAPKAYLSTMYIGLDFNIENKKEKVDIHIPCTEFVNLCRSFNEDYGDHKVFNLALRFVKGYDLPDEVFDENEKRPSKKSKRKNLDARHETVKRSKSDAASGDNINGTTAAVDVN

Binder | binding result
CGUUAUUUAUAUUUCAAAUUUUUCU (ssRNA) [CYC1f EMSA probe] | no binding
CCCCCCCCCCCCCCC (ssRNA) [C15] | no binding
AAGAACGUUAUUUAUAUUUCAAAUUUUUCUUUUUU (ssRNA) [CYC1d EMSA probe] | no binding
GGGGGGGGGGGGGGG (ssRNA) [G15] | no binding
UUUUUUUUUUUUUUU (ssRNA) [U15] | no binding
AAAAAAAAAAAAAAA (ssRNA) [A15] | no binding

Source: publication PMC6436931, “Activation of the Endonuclease that Defines mRNA 3′ Ends Requires Incorporation into an 8-Subunit Core Cleavage and Polyadenylation Factor Complex” (Molecular Cell, 2019)
